Experimental findings from patent US20170306368, “METHODS FOR THAXTOMIN PRODUCTION AND MODIFIED STREPTOMYCES WITH INCREASED THAXTOMIN PRODUCTION” (University of Florida Research Foundation, Inc., published 2017) are described below.

Conditions in all cases: tags: C-terminal His6 (pET-22b, E. coli); label: Cy5
In series [1] the target is T1, CebR (SCAB57761) (Streptomyces scabies 87-22).
T1 chain: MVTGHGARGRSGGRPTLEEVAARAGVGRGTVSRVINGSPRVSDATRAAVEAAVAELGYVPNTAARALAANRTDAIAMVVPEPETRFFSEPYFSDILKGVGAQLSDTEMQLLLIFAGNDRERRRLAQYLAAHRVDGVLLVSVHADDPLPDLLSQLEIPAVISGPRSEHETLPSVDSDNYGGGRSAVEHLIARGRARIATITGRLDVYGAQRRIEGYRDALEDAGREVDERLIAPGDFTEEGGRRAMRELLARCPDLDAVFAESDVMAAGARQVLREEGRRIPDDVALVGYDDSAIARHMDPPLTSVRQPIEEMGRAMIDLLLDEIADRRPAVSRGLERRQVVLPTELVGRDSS
Kind of series: EMSA; strong binding with 20-fold excess nonspecific salmon sperm DNA; same buffer; inhibited by cellobiose.

Series [2] deals with T1, CebR (SCAB57761). Nature of the series: EMSA; strong binding with 20-fold excess nonspecific salmon sperm DNA; 0.08-3.2 uM CebR; pH 7.5, 0.25 mM CaCl2, 0.5 mM MgCl2, 50 mM KCl, room temperature; inhibited by cellobiose.
Series [3] has as its target T1, CebR (SCAB57761). Kind of series: EMSA; strong binding, positive control; excess nonspecific salmon sperm DNA; same buffer; inhibited by cellobiose. (In general: Mobility shift assays separate free from complexed probe on a gel.)

B1: cbs txtB probe (dsDNA)
DNA 1: CTCCCCCAGGGGGAGCGCTCCCACTGCGCTGTA
DNA 2: TACAGCGCAGTGGGAGCGCTCCCCCTGGGGGAG
As for B1, the binding result in series [1] was “binds”.

B2: cbs txtR-A probe (dsDNA)
DNA 1: TGTCAATAAGCGGGAGCGCTCCCACAGCGCTCTC
DNA 2: GAGAGCGCTGTGGGAGCGCTCCCGCTTATTGACA
B2: the binding result in series [2] is “binds”.

B3: cbs bglC probe (dsDNA)
DNA 1: GGTTCAGGCATGGAAGCGCTCCCATTGGTGGTCG
DNA 2: CGACCACCAATGGGAGCGCTTCCATGCCTGAACC
Take B3: the binding result in series [3] is given as “binds”.

B4: cbs cebR-E probe (dsDNA)
DNA 1: CCAGGTACTGTGGGAGCGCTCCCACGAGTGATGT
DNA 2: ACATCACTCGTGGGAGCGCTCCCACAGTACCTGG
For the molecule B4, the binding result in series [3] is recorded as “binds”.
